Laboratory results reported in PMC9482650, “Quantitative fragmentomics allow affinity mapping of interactomes” (Nature Communications, 2022).

T1: TIAM2, Q8IVF5
T1 sequence (Q8IVF5 885-986, limits assumed, looked up): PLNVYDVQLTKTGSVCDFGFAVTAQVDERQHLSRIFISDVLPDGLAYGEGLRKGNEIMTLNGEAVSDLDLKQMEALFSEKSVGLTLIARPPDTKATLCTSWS

T2: SNTG1, Q9NSN8
T2 sequence (Q9NSN8 52-150, limits assumed, looked up): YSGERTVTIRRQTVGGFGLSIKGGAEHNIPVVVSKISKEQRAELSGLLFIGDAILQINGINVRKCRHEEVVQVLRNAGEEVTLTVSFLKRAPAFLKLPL

T3: PDZD7_3, Q9H5P4
T3 sequence (Q9H5P4 857-944, limits assumed, looked up): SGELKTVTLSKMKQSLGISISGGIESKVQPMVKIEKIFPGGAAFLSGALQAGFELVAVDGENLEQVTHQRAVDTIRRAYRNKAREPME

T4: LNX2_2, Q8N448
T4 sequence (Q8N448 334-432, limits assumed, looked up): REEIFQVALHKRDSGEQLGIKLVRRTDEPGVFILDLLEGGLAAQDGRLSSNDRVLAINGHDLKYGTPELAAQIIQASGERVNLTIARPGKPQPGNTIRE

T5: NHERF3_3, Q5T2W1
T5 sequence (Q5T2W1 238-333, limits assumed, looked up): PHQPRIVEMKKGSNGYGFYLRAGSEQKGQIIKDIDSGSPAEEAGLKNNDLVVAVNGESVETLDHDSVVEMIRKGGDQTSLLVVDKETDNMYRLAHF

T6: GRIP1_7, Q9Y3R0
T6 sequence (Q9Y3R0 999-1096, limits assumed, looked up): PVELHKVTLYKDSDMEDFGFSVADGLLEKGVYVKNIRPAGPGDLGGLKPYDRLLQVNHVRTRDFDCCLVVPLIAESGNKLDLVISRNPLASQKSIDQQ

T7: MPP2, Q14168
T7 sequence (Q14168 180-250, limits assumed, looked up): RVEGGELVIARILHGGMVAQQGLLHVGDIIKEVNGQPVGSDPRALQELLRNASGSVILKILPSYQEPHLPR

T8: APBA2_2, Q99767
T8 sequence (Q99767 654-744, limits assumed, looked up): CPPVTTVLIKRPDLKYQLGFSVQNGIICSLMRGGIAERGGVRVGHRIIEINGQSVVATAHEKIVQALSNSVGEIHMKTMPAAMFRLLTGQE

T9: APBA2_1, Q99767
T9 sequence (Q99767 563-664, limits assumed, looked up): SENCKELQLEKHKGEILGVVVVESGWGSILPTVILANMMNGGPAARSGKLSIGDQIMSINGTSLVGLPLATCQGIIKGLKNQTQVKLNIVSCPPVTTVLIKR

T10: MPDZ_12, O75970
T10 sequence (O75970 1857-1958, limits assumed, looked up): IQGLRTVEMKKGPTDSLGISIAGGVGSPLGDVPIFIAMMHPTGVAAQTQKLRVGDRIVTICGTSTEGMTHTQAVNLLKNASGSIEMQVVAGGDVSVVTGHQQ

T11: FRMPD1, Q5SYB0
T11 sequence (Q5SYB0 52-145, limits assumed, looked up): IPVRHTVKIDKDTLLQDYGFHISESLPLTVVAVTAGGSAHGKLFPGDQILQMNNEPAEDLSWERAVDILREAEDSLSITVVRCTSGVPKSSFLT

T12: DVL3, Q92997
T12 sequence (Q92997 244-331, limits assumed, looked up): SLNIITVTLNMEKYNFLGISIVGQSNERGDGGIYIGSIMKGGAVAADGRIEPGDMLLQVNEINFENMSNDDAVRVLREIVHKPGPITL

T13: HTRA4, P83105
T13 sequence (P83105 378-476, limits assumed, looked up): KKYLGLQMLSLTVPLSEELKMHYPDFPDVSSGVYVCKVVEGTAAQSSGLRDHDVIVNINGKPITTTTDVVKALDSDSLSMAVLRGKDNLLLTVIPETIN

T14: CARD11, Q9BXL7
T14 sequence (Q9BXL7 662-765, limits assumed, looked up): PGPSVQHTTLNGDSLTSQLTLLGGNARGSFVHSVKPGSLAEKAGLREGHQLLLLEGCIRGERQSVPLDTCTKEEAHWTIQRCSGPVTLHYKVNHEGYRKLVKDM

T15: MPP7, Q5T2T1
T15 sequence (Q5T2T1 134-230, limits assumed, looked up): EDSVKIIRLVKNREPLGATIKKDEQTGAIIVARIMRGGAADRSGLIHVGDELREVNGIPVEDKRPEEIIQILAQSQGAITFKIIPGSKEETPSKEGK


How the values were obtained:
Experiment in all cases: holdup assay
Parameters in all cases: key: below the threshold = too weak to quantify, mostly under pKd 3.1 to 4
Conditions in all cases: plain residues with an end cap or a label only (N-terminal biotin on a linker: ado-ado)
[1] = target: T1, TIAM2, Q8IVF5
[2] = target: T2, SNTG1, Q9NSN8
[3] = target: AHNAK1, Q09666
[4] = target: MAST2, Q6P0Q8
[5] = target: ARHGEF12, Q9NZN5-2
[6] = target: T3, PDZD7_3, Q9H5P4
[7] = target: T4, LNX2_2, Q8N448
[8] = target: T5, NHERF3_3, Q5T2W1
[9] = target: T6, GRIP1_7, Q9Y3R0
[10] = target: GRIP2_3, Q9C0E4
[11] = target: T7, MPP2, Q14168
[12] = target: LIMK2, P53671
[13] = target: Inadl_3, Q8NI35
[14] = target: T8, APBA2_2, Q99767
[15] = target: T9, APBA2_1, Q99767
[16] = target: T10, MPDZ_12, O75970
[17] = target: T11, FRMPD1, Q5SYB0
[18] = target: T12, DVL3, Q92997
[19] = target: TJP1_2, Q07157
[20] = target: T13, HTRA4, P83105
[21] = target: SCRIB_1, Q14160
[22] = target: T14, CARD11, Q9BXL7
[23] = target: T15, MPP7, Q5T2T1

Sequence of SCRIB_1, Q14160 (Q14160 718-814): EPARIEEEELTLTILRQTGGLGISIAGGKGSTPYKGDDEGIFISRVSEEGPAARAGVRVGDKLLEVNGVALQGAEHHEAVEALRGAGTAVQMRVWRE
Sequence of TJP1_2, Q07157 (Q07157 181-274): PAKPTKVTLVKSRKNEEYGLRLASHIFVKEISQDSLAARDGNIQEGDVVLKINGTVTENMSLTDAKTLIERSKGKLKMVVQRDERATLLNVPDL
Sequence of MAST2, Q6P0Q8 (Q6P0Q8 1099-1202): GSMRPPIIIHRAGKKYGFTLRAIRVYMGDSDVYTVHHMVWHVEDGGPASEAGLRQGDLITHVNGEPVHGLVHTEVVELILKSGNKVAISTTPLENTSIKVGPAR
Sequence of ARHGEF12, Q9NZN5-2 (Q9NZN5 other isoform, or with tags, fused parts or gaps): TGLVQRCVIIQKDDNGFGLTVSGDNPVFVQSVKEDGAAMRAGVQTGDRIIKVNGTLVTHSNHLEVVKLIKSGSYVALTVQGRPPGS
Sequence of Inadl_3, Q8NI35 (Q8NI35 359-469): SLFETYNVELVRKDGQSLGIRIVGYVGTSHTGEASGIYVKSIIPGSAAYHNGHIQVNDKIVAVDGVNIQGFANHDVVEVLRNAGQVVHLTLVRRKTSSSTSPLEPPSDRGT
Sequence of AHNAK1, Q09666 (Q09666 4-100): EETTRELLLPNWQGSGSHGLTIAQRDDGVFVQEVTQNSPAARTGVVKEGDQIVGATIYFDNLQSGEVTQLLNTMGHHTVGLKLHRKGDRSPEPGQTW
Sequence of GRIP2_3, Q9C0E4 (Q9C0E4 238-339): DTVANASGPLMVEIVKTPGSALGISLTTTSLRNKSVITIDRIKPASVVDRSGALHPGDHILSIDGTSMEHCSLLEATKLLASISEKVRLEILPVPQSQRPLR
Sequence of LIMK2, P53671 (P53671 143-248): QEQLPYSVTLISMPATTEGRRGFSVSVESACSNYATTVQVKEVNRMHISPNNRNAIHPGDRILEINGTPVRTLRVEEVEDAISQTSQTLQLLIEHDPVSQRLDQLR

Row | Binder | pKd [1] | pKd [2] | pKd [3] | pKd [4] | pKd [5] | pKd [6] | pKd [7] | pKd [8] | pKd [9] | pKd [10] | pKd [11] | pKd [12] | pKd [13] | pKd [14] | pKd [15] | pKd [16] | pKd [17] | pKd [18] | pKd [19] | pKd [20] | other results
1 | PGKKPEDSRV [SLCO2B1, O94956] | below the threshold | below the threshold | below the threshold | 4.27 | below the threshold | below the threshold | below the threshold | below the threshold | below the threshold | below the threshold | below the threshold | below the threshold | below the threshold | below the threshold | below the threshold | below the threshold | below the threshold | below the threshold | below the threshold | below the threshold | pKd [21]: below the threshold; pKd [22]: below the threshold; pKd [23]: below the threshold
2 | TKDKVQETQI [LRRC4, Q9HBW1] | below the threshold | 4.97 | below the threshold | 5.52 | 4.57 | 5.51 | below the threshold | below the threshold | below the threshold | below the threshold | below the threshold | below the threshold | 3.56 | below the threshold | below the threshold | below the threshold | below the threshold | below the threshold | 3.64 | below the threshold | pKd [21]: 5.19; pKd [22]: below the threshold; pKd [23]: below the threshold
3 | GNDPDRGTSI [GRID2, O43424] | 4.09 | below the threshold | below the threshold | 4.45 | below the threshold | 4.1 | below the threshold | below the threshold | below the threshold | below the threshold | below the threshold | below the threshold | below the threshold | below the threshold | below the threshold | below the threshold | below the threshold | below the threshold | below the threshold | below the threshold | pKd [21]: below the threshold; pKd [22]: below the threshold; pKd [23]: below the threshold
4 | EPAKETTTNV [SLC2A3, P11169] | below the threshold | 4.06 | below the threshold | 5.06 | 3.87 | 4.3 | 4.22 | below the threshold | below the threshold | below the threshold | below the threshold | below the threshold | below the threshold | below the threshold | below the threshold | below the threshold | below the threshold | below the threshold | below the threshold | below the threshold | pKd [21]: below the threshold; pKd [22]: below the threshold; pKd [23]: below the threshold
5 | SGDGKTSVWI [GJC1, P36383] | 4.21 | 3.61 | below the threshold | below the threshold | 3.61 | below the threshold | 5.42 | below the threshold | below the threshold | below the threshold | below the threshold | below the threshold | 3.69 | below the threshold | below the threshold | 4.1 | below the threshold | 4.23 | 5 | 4.64 | pKd [21]: 3.94; pKd [22]: below the threshold; pKd [23]: below the threshold
6 | MLPANYVEAI [NEB, P20929] | 3.96 | below the threshold | below the threshold | below the threshold | below the threshold | 3.52 | below the threshold | below the threshold | below the threshold | below the threshold | below the threshold | below the threshold | below the threshold | below the threshold | below the threshold | below the threshold | below the threshold | below the threshold | below the threshold | 3.67 | pKd [21]: below the threshold; pKd [22]: below the threshold; pKd [23]: below the threshold
